Experimental data as given in paper doi:10.1101/2025.10.06.680677, “Mechanistic insight into the oligomerisation of Arabidopsis CRY1 and its inhibition by BIC1” (bioRxiv, 2025).

B1: Arabidopsis thaliana CRY1 PHR domain (residues 1-509) (domain or fragment, UniProt Q43125 1-509, looked up)
chain: MSGSVSGCGSGGCSIVWFRRDLRVEDNPALAAAVRAGPVIALFVWAPEEEGHYHPGRVSRWWLKNSLAQLDSSLRSLGTCLITKRSTDSVASLLDVVKSTGASQIFFNHLYDPLSLVRDHRAKDVLTAQGIAVRSFNADLLYEPWEVTDELGRPFSMFAAFWERCLSMPYDPESPLLPPKKIISGDVSKCVADPLVFEDDSEKGSNALLARAWSPGWSNGDKALTTFINGPLLEYSKNRRKADSATTSFLSPHLHFGEVSVRKVFHLVRIKQVAWANEGNEAGEESVNLFLKSIGLREYSRYISFNHPYSHERPLLGHLKFFPWAVDENYFKAWRQGRTGYPLVDAGMRELWATGWLHDRIRVVVSSFFVKVLQLPWRWGMKYFWDTLLDADLESDALGWQYITGTLPDSREFDRIDNPQFEGYKFDPNGEYVRRWLPELSRLPTDWIHHPWNAPESVLQAAGIELGSNYPLPIVGLDEAKARLHEALSQMWQLEAASRAAIENGSEEG
notes: Cryptochrome 1 (CRY1), Arabidopsis thaliana, photolyase homology region (PHR) domain, residues 1-509; Cloned in pACYCDuet-1; Monomer about 59 kDa by LILBID-MS; also called wild-type CRY1; source: E. coli BL21 Star (DE3), purified (Ni-NTA, SEC on Superdex 200)
B2: Arabidopsis thaliana CRY1 PHR domain (residues 1-509) L407F mutant (domain or fragment, UniProt Q43125 1-509, looked up)
chain: MSGSVSGCGSGGCSIVWFRRDLRVEDNPALAAAVRAGPVIALFVWAPEEEGHYHPGRVSRWWLKNSLAQLDSSLRSLGTCLITKRSTDSVASLLDVVKSTGASQIFFNHLYDPLSLVRDHRAKDVLTAQGIAVRSFNADLLYEPWEVTDELGRPFSMFAAFWERCLSMPYDPESPLLPPKKIISGDVSKCVADPLVFEDDSEKGSNALLARAWSPGWSNGDKALTTFINGPLLEYSKNRRKADSATTSFLSPHLHFGEVSVRKVFHLVRIKQVAWANEGNEAGEESVNLFLKSIGLREYSRYISFNHPYSHERPLLGHLKFFPWAVDENYFKAWRQGRTGYPLVDAGMRELWATGWLHDRIRVVVSSFFVKVLQLPWRWGMKYFWDTLLDADLESDALGWQYITGTFPDSREFDRIDNPQFEGYKFDPNGEYVRRWLPELSRLPTDWIHHPWNAPESVLQAAGIELGSNYPLPIVGLDEAKARLHEALSQMWQLEAASRAAIENGSEEG
notes: Cryptochrome 1 (CRY1), Arabidopsis thaliana, PHR domain, residues 1-509, with L407F; Cloned in pACYCDuet-1; also called CRY1^L407F; constitutively active CRY1; source: E. coli BL21 Star (DE3), purified (Ni-NTA, SEC on Superdex 200)

Key:
[1] = target: the molecule itself; test: native MS; LILBID-MS, under blue light (455 nm LED, 100 µmol m-2 s-1), 20 °C, 200 mM ammonium acetate, 10 mM DTT, pH 7.4; BIC1 equimolar, added before illumination or to pre-illuminated tetrameric CRY1
[2] = target: the molecule itself; test: native MS; time-resolved nESI-MS, CRY1 15 µM, blue light, room temperature, with 100 µM ATP; reversible two-step model (monomer to dimer, dimer to tetramer)
[3] = target: the molecule itself; test: native MS; time-resolved nESI-MS, 10 scans per second, CRY1 15 µM, blue light, room temperature, no ATP; reversible two-step model (monomer to dimer, dimer to tetramer) fitted with DynaFit
[4] = target: the molecule itself; test: SEC; analytical SEC, Superdex 200 10/300 GL, 10 °C, 30 µM protein, ß-mercaptoethanol, kept in darkness (red safe light)
[5] = target: B1; test: native MS; quantitative LILBID-MS (qLILBID-MS), label-free, under blue light; KD from dissociation plots; settings: both partners purified
[6] = target: B2; test: native MS; quantitative LILBID-MS (qLILBID-MS), label-free, in the dark; KD from dissociation plots; settings: both partners purified
[7] = target: B1; test: as above; settings: both partners purified
[8] = target: the molecule itself; test: not stated; wild-type BIC1, disulfide bond-mediated dimerization (Extended Data Fig. 5a, b); method not given

## B1
[1]
  stoichiometry N: 4
[2]
  fold change of the rate of tetramer formation with 100 µM ATP against no ATP: ~4 fold
  fold slowing of dimer dissociation with 100 µM ATP against no ATP: > 10 fold
  fold slowing of tetramer dissociation with 100 µM ATP against no ATP: ~2 fold
[3]
  half-life of tetramer formation (single-exponential fit): ~18 s

## B2
[4]
  stoichiometry N: 4

B3: Blue-light Inhibitor of Cryptochromes 1 (BIC1) triple mutant C99A, C105A, C136A (natural protein, Arabidopsis thaliana, UniProt Q9LXJ1 1-140, looked up)
chain: MMNIDDTTSPMAHPIGPSQPPSDQTKQDPPSLPQEAASSVSADKKDLALLEEKPKQSQEEDRVDTGRERLKKHRREIAGRVWIPEIWGQEELLKDWIDASTFDTALVPAGISSARTALVEEARRAASASGGLHNRALILR
notes: BIC1, Arabidopsis thaliana, synthetic gene with three cysteine-to-alanine substitutions; Cloned in pET28a(+) (BioCat GmbH); About 20 kDa by LILBID-MS; also called BIC1^3CA; source: E. coli BL21 Star (DE3), purified (Ni-NTA, SEC on Superdex 75)
[5]
  Kd: 130 ± 90 nM
[6]
  Kd: 100 ± 30 nM
[7]
  Kd: ~1200 nM

B4: Arabidopsis thaliana wild-type BIC1 protein (natural protein, UniProt Q9LXJ1 1-140, looked up)
chain: MMNIDDTTSPMAHPIGPSQPPSDQTKQDPPSLPQEAASSVSADKKDLALLEEKPKQSQEEDRVDTGRERLKKHRREIAGRVWIPEIWGQEELLKDWIDCSTFDTCLVPAGISSARTALVEEARRAASASGGLHNRCLILR
notes: BIC1, Arabidopsis thaliana, wild type with its cysteines; The construct and its host are not described; the methods say in general that recombinant proteins carried an N-terminal His6-tag; The dimer is held by disulfide bonds
[8]
  stoichiometry N: 2
